Here are results for 1 substance from paper PMC8485043.

Values joined by “and” are separate entries in the source; they are usually repeats but may differ in a detail not shown here. Equal entries are not always repeated.

The target of the experiment is VDAC-ΔC, C-terminally truncated variant of Neurospora crassa VDAC lacking residues 269-283 (β19) (Neurospora crassa). Briefly: SEC-MALS; protein folded in DM, no sterol; UV, MALS and differential refractive index detectors, protein-conjugate analysis in ASTRA. On the technique in general: SEC sorts molecules by how far they enter the pores of the column.

In the case of “VDAC-ΔC, C-terminally truncated variant of Neurospora crassa VDAC lacking residues 269-283 (β19) (domain or fragment)”, the stoichiometry N (in general, the number of molecules, sites or subunits per partner or assembly) was 2 and 4.
